Reference: patent US20150158934A1

Key:
Assay in all cases: SPR
[1] = biological target: gp140UG37 (subtype A), gp140 envelope glycoprotein from the HIV-1 group M A-clade isolate 92UG037 (HIV-1)
[2] = biological target: gp120IIIB (subgroup B) (HIV-1) (UniProt P04578)
[3] = biological target: CA018 gp140/420 (A/G) (HIV-1)
[4] = biological target: gp140CN54 (subtype B'/C), gp140 envelope glycoprotein from the HIV-1 group M CRF07-B/C-clade isolate 97CN54 (HIV-1)

## mAb 2F5 (antibody)
[1]
  Kd: 58.5 nM
  koff: 0.422 s⁻¹
  kon: 80900 M⁻¹ s⁻¹

## mAb HJ16 (antibody)
[2]
  Kd: 3.03 nM
  koff: 0.000156 s⁻¹
  kon: 51500 M⁻¹ s⁻¹
[1]
  Kd: 88.5 nM
  koff: 0.341 s⁻¹
  kon: 424000 M⁻¹ s⁻¹
[3]
  Kd: 1030 nM
  koff: 0.0382 s⁻¹
  kon: 37200 M⁻¹ s⁻¹

## mAb 17b (antibody)
[4]
  Kd: 6.15 nM
  koff: 0.000171 s⁻¹
  kon: 27700 M⁻¹ s⁻¹
[1]
  Kd: 2.64 nM
  koff: 0.000135 s⁻¹
  kon: 51000 M⁻¹ s⁻¹
[3]
  Kd: 1.07 nM
  koff: 0.000637 s⁻¹
  kon: 593000 M⁻¹ s⁻¹

## mAb b12 (antibody)
[4]
  Kd: 167 nM
  koff: 0.00228 s⁻¹
  kon: 13600 M⁻¹ s⁻¹
[1]
  Kd: 233 nM
  koff: 0.301 s⁻¹
  kon: 1.29e+06 M⁻¹ s⁻¹
[3]
  Kd: 18.8 nM
  koff: 0.0271 s⁻¹
  kon: 1.43e+06 M⁻¹ s⁻¹

## sCD4 (2-D) (from UniProt P01730 26-208) (receptor)
[2]
  Kd: 0.942 nM
  koff: 6e-05 s⁻¹
  kon: 63700 M⁻¹ s⁻¹
[1]
  Kd: 39.8 nM
  koff: 0.000249 s⁻¹
  kon: 6250 M⁻¹ s⁻¹

## mAb 2G12 (antibody)
[1]
  Kd: 393 nM
  koff: 0.349 s⁻¹
  kon: 695000 M⁻¹ s⁻¹
[3]
  Kd: 537 nM
  koff: 0.342 s⁻¹
  kon: 500000 M⁻¹ s⁻¹
